Molecular target: Neisseria meningitidis Cas9 (NmeCas9, from strain 8013), 6×His-tagged (Neisseria meningitidis (strain 8013)) (UniProt C9X1G5)
Sequence of UniProt C9X1G5 (C9X1G5 whole entry): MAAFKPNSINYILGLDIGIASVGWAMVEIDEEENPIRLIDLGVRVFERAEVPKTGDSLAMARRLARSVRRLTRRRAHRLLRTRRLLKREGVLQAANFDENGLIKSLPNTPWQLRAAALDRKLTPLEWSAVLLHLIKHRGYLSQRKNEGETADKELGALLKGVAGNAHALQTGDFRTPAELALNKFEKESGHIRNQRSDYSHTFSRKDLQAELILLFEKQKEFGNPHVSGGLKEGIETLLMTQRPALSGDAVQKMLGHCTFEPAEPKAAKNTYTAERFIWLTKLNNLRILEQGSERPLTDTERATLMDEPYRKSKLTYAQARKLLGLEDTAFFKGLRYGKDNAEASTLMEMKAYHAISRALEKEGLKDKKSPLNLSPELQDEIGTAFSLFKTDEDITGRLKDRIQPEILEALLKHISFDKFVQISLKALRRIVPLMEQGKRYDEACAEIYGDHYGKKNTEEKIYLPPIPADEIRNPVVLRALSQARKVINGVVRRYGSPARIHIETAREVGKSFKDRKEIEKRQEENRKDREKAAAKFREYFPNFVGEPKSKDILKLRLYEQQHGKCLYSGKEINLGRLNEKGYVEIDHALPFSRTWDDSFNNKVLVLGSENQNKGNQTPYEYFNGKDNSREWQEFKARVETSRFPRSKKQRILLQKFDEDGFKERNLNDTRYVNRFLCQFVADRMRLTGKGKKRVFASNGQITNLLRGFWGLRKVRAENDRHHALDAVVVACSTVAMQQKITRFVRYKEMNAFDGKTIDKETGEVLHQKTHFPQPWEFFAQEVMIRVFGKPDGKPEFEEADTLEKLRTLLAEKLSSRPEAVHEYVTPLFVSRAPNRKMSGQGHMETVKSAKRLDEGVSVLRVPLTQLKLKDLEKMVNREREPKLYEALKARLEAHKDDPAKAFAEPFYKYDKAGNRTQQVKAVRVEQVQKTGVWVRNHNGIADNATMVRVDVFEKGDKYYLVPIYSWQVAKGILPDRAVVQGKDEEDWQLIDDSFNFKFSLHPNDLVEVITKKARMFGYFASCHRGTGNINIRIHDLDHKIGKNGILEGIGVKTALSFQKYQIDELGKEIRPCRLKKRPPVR

in vitro cleavage of linearized target plasmid by NmeCas9-sgRNA; molar excess of Acr over Cas9 at complete inhibition (fold molar excess of Acr): 7
Substance: AcrIIC5Smu, untagged (natural protein)

Source: PMC6282205
